The values below come from the DeepSol protein solubility set.

This series is described as follows: soluble on expression in E. coli; label from the status in PepcDB or PDB records.
As for “MIPADGWRHVGDQWLVSTDGAKIHASELADHLLADFGYAIVYDEMAEPVDLYRTQRFANDKQRLILTADQLLCADPQCTRAAYRGQAHHIEAWKNGGDTNLKNLCLTCGPHNALNDDDHAKGKHKNGHYVRDKYNGRIGWQPPDPTKSIRFNNHVLAQKSGRSWAIRHFGL”, the “soluble on expression in E. coli” value is recorded as “not soluble”.
On to “MIPGEYIIKNEFITLNDGRRTLNIKVSNTGDRPVQVGSHYHFFEVNRYLEFDRKSAFGMRLDIPSGTAVRFEPGEEKTVQLVEIGGSREIYGLNDLTCGPLDREDLSNVFKKAKELGFKGVE”, for which the “soluble on expression in E. coli” value is listed as “not soluble”.
With “MIPLVAPRSVIERVEAICREAGGILRVAPYRRLQVGLITTGSEVYKGRIKDAFGPVVRAKIASYGSEVALEKVVPDDAAAIHDAIEEMLAAGMQMVVLTGGMSVDPDDVTPDGIRRSGAEVVTYGAPVLPGAMFMLAYRGDVPIMGLPGCVMYYRATVFDLVLPRILVGERLEHHHHHH”, the “soluble on expression in E. coli” value was “not soluble”.
For the sequence “MIPRILGALLLCLACAAQAGVYTYIDAEGNRVYTDQPPSGRKAQRVELAPGNSVAPPGIRYRPPAAPLEVKPPAYQLLRILFPEPDATLRANSGDVIVTVTSEPALLPGHRYRLLLDGKPAGVPGRSPVFPLKNLDRGTHQVAVEIIDGDGMTVESTPSQPFHLHRVSIAGQPLPEVDTPLVSAIEPSER”, the “soluble on expression in E. coli” value is on record as “not soluble”.
For “MIPTERRQIILDMVAEKGIVSIAELTERMHVSHMTIRRDLQKLEQQGAVIQVSGGVQSSTRVAHEPSHQIKTELATPQKAAIGKLAASLVQPESCIYLDAGTTTLAIARQLVTMNKLTVVTNDFVIADYLMDNSNCTIIHTGGAVCRENRSCVGEAAATLLRGLMIDQAFISASSWSVRGISTPAEDKVTVKRAVASASRQKILVCDATKYGQVATWLALPLAEFNQIVTDDGLPESAIRALAKVDISLLMAKQLEHHHHHH”, the “soluble on expression in E. coli” value is “soluble”.
To “MIQLEKLTKHFGTKRVVHDASAQFDKGQVTAIIGPNGAGKSTLLSMASRLVNRDAGKVWIEQRELVEWNTKALAQKLAVLRQSNVLNMRFTVRELTAFGRFPYSQGKLTTQDEQIINQAIEYLDLETIQYQYLDELSGGQRQLAFIAMVMAQDTDYVFLDEPLNNLDIKHSLQIMSTLRRLAHELNKAVVVVIHDINFASCYADKIVALKKGEVVATGSVRDVIQSEVLSAIYDTPFNVIEMQGQRLCLYTLPT” belongs “not soluble”; to “MIRHRFSAEDFHRMAEAGILGEDDRVELIRGEVVELSPVGKRHMAALKRLMNALFPLQQAKKALLQVQDPLRLFPDTEPQPDLALLAYRDDFYRERVPEAKDALLVVEVAETSLDHDLQVKLPLYAQAGIPEVWVVDLVREKVHVFRKPQGEGYGEAQALEDGELSVLGLKVPVKEVLP”, “soluble”; to “MIRIGVLISGSGTNLQAILDGCREGRIPGRVAVVISDRADAYGLERARRAGVDALHMDPAAYPSRTAFDAALAERLQAYGVDLVCLAGYMRLVRGPMLTAFPNRILNIHPSLLPAFPGLEAQRQALEHGVKVAGCTVHFVTAGVDEGPIILQAAVPVLEGDTVEDLRRRILAEEHRIYPEAIRLFAEGRLVIEGRRVRILDRAEAPRG”, “soluble”.
For “MIRKWDTKDTAPLLALWLDSTIHAHPFISESYWRDSVAVVRDVYLPAASTWVWEQDGELKGFVSVLDSRFVGALFVAPGATRQGIGRALLDEVKQHYAWLSLEVYQKNESAVSFYHAQGFRIEDCAWQDDTQHPTWIMRWPADQMP”, the “soluble on expression in E. coli” value is recorded as “not soluble”.
In the case of “MIRLIFLDIDKTLIPGYEPDPAKPIIEELKDMGFEIIFNSSKTRAEQEYYRKELEVETPFISENGSAIFIPKGYFPFDVKGKEVGNYIVIELGIRVEKIREELKKLENIYGLKYYGNSTKEEIEKFTGMPPELVPLAMEREYSETIFEWSRDGWEEVLVEGGFKVTMGSRFYTVHGNSDKGKAAKILLDFYKRLGQIESYAVGDSYNDFPMFEVVDKVFIVGSLKHKKAQNVSSIIDVLEVIKHHHHHH” it was “soluble”; in that of “MIRLSEQSPLGTGRHRKCYAHPEDAQRCIKIVYHRGDGGDKEIRRELKYYAHLGRRLKDWSGIPRYHGTVETDCGTGYVYDVIADFDGKPSITLTEFAEQCRYEEDIAQLRQLLKQLKRYLQDNRIVTMSLKPQNILCHRISESEVIPVVCDNIGESTLIPLATWSKWCCLRKQERLWKRFIAQPALAIALQKDLQPRESKTLALTSREALEHHHHHH”, “not soluble”; in that of “MIRQVIQRISNPEASIESLQERRFWLQCERAYTWQPIYQTCGRLMAVELLTVVTHPLNPSQRLPPDRYFTEITVSHRMEVVKEQIDLLAQKADFFIEHGLLASVNIDGPTLIALRQQPKILRQIERLPWLRFELVEHIRLPKDSTFASMCEFGPLWLDDFGTGMANFSALSEVRYDYIKIARELFVMLRQSPEGRTLFSQLLHLMNRYCRGVIVEGVETPEEWRDVQNSPAFAAQGWFLSRPAPIETLNTAVLAL”, “not soluble”.
To “MIRTIERIITSTGFSLQHSDNGEITGLFYHCKLSSAYQPVFEAARNNIIGQEARIRADLNGNGEIQLSPWHIFALAPDDEQLIKLDRLCRTIHALNFLDNITNKQMKLFVSVQPRLLESVKDDHGSAFEQILDIIGIRTSRIVIEIPVEANRDWRLLKRVIMNYRAHGYLISVNYSGTNNDRISELGKLYPNVIRIDARDLLRRSVLDPLIVTAHNQGADVLVGNIETSYQLTDAIHAGADLLQGNFLARYSRKADNMLTPFSWQIPDERNGYRFDNESLQENQPYRSI” belongs “not soluble”; to “MIRVLLADDHALFRQGLKSLLEAEGDFRVVGEAKDGWEAMRHALETKPDVILMDIQMPGLDGVQATQAILKEWPQAKVIMLTMYRQDAYVFEAVKAGARGYLLKDVDARELVDAIRRVHAGEVLLDAELAGHIIQDFRAKKEASQPLHAELSEREVQILRLVAQGYTNQEIAAELQLSEKTVRNRLSEIFQKLHLNNRTQAALYAIREGLARPEE”, “soluble”; to “MISKYLVRDVMKKGVVEVTLDTKLSDVIKTMAKYDISSVVVSDGETFWGIITDTDVLKHYNDLDKTAEEIMTTNPITVSPEAPLEKAVEIMAEKGIHHLYVKSPCEDKIVGVLSSKDIIKLFSDLIE”, “soluble”.
In the case of “MISVFDIFKIGIGPSSSHTVGPMKAGKQFTDDLIARHILTDVTRVVVDVYGSLSLTGKGHHTDIAIIMGLAGNLPDTVDIDAIPSFIQDVNTHGRLLLANGQHEVEFPVDKCMNFHADNLSLHENGMRITALAGDKVLYSQTYYSIGGGFIVDEEHFGLTNSEPVNVPYPYKTAADLQRHCQETGLSLSGLMMQNELALHSKEALEQHFARVWEVMRSGIERGITTEGVLPGKLRVPRRAAALRRMLVSQDKTTTDPMAVVDWINMFALAVNEENAAGGRVVTAPTNGACGIVPAVLAYYDKFIREVNANSLARYMLVASAIGSLYKMNASISGAEVGCQGEVGVACSMAAAGLAELLGGSPAQVCIAAEIAMEHNLGLTCDPVAGQVQVPCIERNAIASVKAVNAARMAVRRTSEPRVCLDKVIETMYETGKDMNAKYRETSRGGLAMKIVTCD” it was “not soluble”; in that of “MISVFDMFKVGIGPSSSHTVGPMKAGKQFIDDLIKRNQFEQTTEIHVDVYGSLSMTGRGHSTDIAIIMGLAGYLPHNVDIDMISGFIEKVKQTALLPINVGQKIVKFDFENNLIFHRTFLKLHENGMTITALDENRTELYRQTYYSIGGGFIVDEAHFGK”, “not soluble”.
“MITLFTFGPSFGLPDASPFVMKAELLLKMAGLPYQTARGNLRRAPKGKLPYLDDMGRIVADSTLIRWHIEKTYHVDFDEGLSPAERGTAWAVEKLMEDNLYWAVARVRWLERDNFERGPAQFFNVVPGPLRGLVKVLVRRKVRQMLWAQGLGRHSEQDMTAMAVQGIKAITDILGDKPYLMGNNPCGADATLFAFAASLLSPVFETPIRAAAESHPNLIAYMARMRTRYYPDFQGSGVFAPASAATAGRPEAAFGQQLEHHHHHH”: the “soluble on expression in E. coli” value is reported as “soluble”.
To “MITLYGFGTGFGLPEISPFVTKTEVQLKMAGLPYRKERAMPPASPKGQLPFIDDGGEAVADSTFIRAHIERRYGFDFDAGLSLQERAQAWAFERMIEHHVYWALVGARWVDPINFAKGPSHFFDGAPEHNREKLREDAQFRVAENYLLSGLGRHAPDDDVDLAVRSLFALSVQLGDKAYLMGNKPCGVDATAFGALAGILTPFFESGLRQRAEGFPNLTAYVDRMMDNYYPEFAWTPLRQAALEHHHHHH” belongs “not soluble”; to “MITMKDIIKEGHPTLRKVAEPVPLPPSEEDKRILQSLLDYVKMSQDPELAAKYGLRPGIGLAAPQINVSKRMIAVHVTDENGTLYSYALFNPKIVSHSVQQCYLTTGEGCLSVDRDVPGYVLRYARITVTGTTLDGEEVTLRLKGLPAIVFQHEIDHLNGIMFYDRINPADPFQVPDGAIPIGR”, “soluble”.
To “MITNDHDRRKQISVRGIAQVENVSNIKKAFNRHLHFSIIKDRNVATDRDYYFALANTVRDHLVSRWIRTQQHYYDKDPKRVYYLSLEFYMGRTLSNTMMNLGIQATVDEALYQLGLDIEELQEIEEDAGLGNGGLGRLAACFLDSMATLGIPAYGYGLRYEYGIFKQLIRDGWQIEEPDDWLRFGNPWEKARPEYMLPVNFYGKVVKEDGKSKWIDTQVVFAMPYDTPVPGYKNNIVNTLRLWSAKAENHFHLKFFNDGDYVQAVMDRNLSENITRVLYPNDNMFLGKELRLKQQYFLVAATLQDIIRRFKSSIYGNREAVRVNFETFPDKVAIQLNDTHPSIGIPELIRLLIDVEGLTWDQAWDICIKTYAYTNHTLLPEALERWPVSLMQNLLPRHLEIIYEINQKFMNTISQRFPGDFDRMRRMSIVEEADQFGEKRINMAHLCIVASHAINGVAALHSDLLKSSTFRDFYEFYPDRFQNKTNGITPRRWLLLSNPSLADLIVEKIGESWITNLDELQKLKEYANDAGFLDSIRRVKLENKQQVAQYLSDEYNVNVNAASLFDVHVKRIHEYKRQLLNILHVIALYNRIKENPNIDMVKRTVLYGGKAAPGYHMAKQIIRLITAVAEQVNNDAIVGDRLKVIFLENYRVSMAEKIIPASDLSEQISTAGTEASGTGNMKFMLNGALTIGTLDGANVEMAEEMGDENIFIFGMNVEEVEALTKRGYSSQEFIDKSPMLKQIIEQIEGGMFTPEDPDQLKDLSNMLRYHDRFMVCADFDAFIEAQDKVSATFRDQEKWSRMALYNIASTGKFSTDRTITEYAREIWGIDQFESSLPAPYENEKSE” belongs “not soluble”; to “MITPKGTHDAVAKFQKTDLHQDLDYIVLQQRRTQLETLINERESFVKNLCSLFHKIQNTKNYQEFVDVLAENRDLLREIFTVENGFQKQKWISNDDIPQIDWDKFALDINAYIAENDQLLALYEDGLL”, “not soluble”; to “MITQNIESLNNIAKIQHAANTDYLTDLANRRAFFRSAESRIKEYINKKVPYCLAMIDVDFFKKVNDTYGHDSGDQVLKVIALYMRKHFGAGLTARLGGEEFAVLLHGLDADYLHNKLDDFRREIAVSSIPAGDTSISITLSLGVVFDSEDELSKQMNEADNALYAAKENGRNQIVVFGAELDDLEHHHHHH”, “soluble”.
